One molecule from US20240368234A1 can be followed below.

The assay deals with MBP-SpyTag. In words: SDS-PAGE coupling assay, biotin-HPDP-modified Catcher, without TCEP, one hour.

B1: SpyCatcher Ala87→Cys modified with biotin-HPDP (designed binder)
chain: VTTLSGLSGEQGPSGDMTTEEDSATHIKFSKRDEDGRELAGATMELRDSSGKTISTWISDGHVKDFYLYPGKYTFVETAAPDGYEVCTPIEFTVNEDGQVTVDGEATEGDAHT
In the case of B1, the loss of activity came to 50%.
